Key:
[1] = system: IL-1b secreted by LN cells; experiment: IL-1b secretion by GA-stimulated LN cells, MSD 9-plex ELISA (Example II); assay type: cell-based, mouse; settings: 21 hr
Experimental: (§1) Animals at 8 weeks of age were immunized by injection into four footpads using a 1 mL syringe with a 27-G, 1⁄2-inch needle. […] Ten days post-immunization, immunized animals were sacrificed via cervical dislocation. […] The LN cells were isolated by pressing the LN with the plunger end of a sterile syringe. […] Trypan blue exclusion method was used to determine the cell density of viable cells in the suspension. […] Cat. […] LN cells were plated into a 24-well tissue culture plate for drug stimulation. […] Cell debris was removed by centrifugation at ca. 200×g for 10 minutes at 4° C. Cytokines secreted by treated cells were determined on the day of collection by ELISA using mouse TH 1/TH 2 9-Plex Tissue Culture Kit (Meso Scale Discovery; Cat No. […]-2, Lot #: K0032839) which detects Th1 cytokines (IFN-γ, IL-2, IL-12, IL-1β, TNF-α, CXCL1) and Th2 cytokines (IL-4, IL-5 and IL-10). For IFN-γ, culture media also were assayed at 45 hours using mouse IFN-γ Tissue Culture Kit (Meso Scale Discovery; Cat No. […] For the positive control, 0.5 mL of LN cells (5×10^6 cells/well) were treated with 0.5 mL of ConA (5 μg/mL). For the negative control, 0.5 mL of LN cells (5×10^6 cells/well) were treated with 0.5 mL of MBP (20 μg/mL). The LN cells with mock stimulation (enriched DCCM1 medium) were used to monitor the background level of a cytokine. For the cytokine assays, calibration standards or samples were incubated in the MULTI-SPOT or the SINGLE-SPOT plate and each cytokine bound to its corresponding capture antibody. All test samples were run in duplicate. The amount of each cytokine on its distinct spot was quantified using a cytokine-specific detection antibody labeled with MSD SULFO-TAGTM reagent. Electrochemiluminescent signals from immobilized SULFO-TAGTM-labeled complexes on each spot from each well were captured by the MSD SECTOR Imager 6000, which produces a signal directly proportional to the amount of captured cytokine in a test sample. The levels of cytokines in test samples were derived by interpolation from calibration curves with calibration standards of known concentrations using reagents provided with the MSD kits. Kits were used according to the manufacturer's protocols. […] Data are expressed as a response ratio of cytokine concentration in treated cell medium to control DCCM1 medium.

[2] = system: KC (CXCL1) secreted by LN cells; experiment: KC (CXCL1) secretion by GA-stimulated LN cells, MSD 9-plex ELISA (Example II); assay type: cell-based, mouse; settings: 21 hr
Experimental: as §1

[3] = system: mouse IL-10 mRNA in primary LN cells; experiment: Validation: mouse IL-10 mRNA by real-time PCR in LN cells of GA-immunized SJL/J mice (Example IV); assay type: cell-based; settings: for IL-10 mRNA Fold Change: normalized to GAPDH
Experimental: (§2) Three experiments were conducted using one batch of GA (Mylan GMA). The primary LN cells were stimulated by incubation with 6 concentrations (0.3 to 20 μg/mL) of the GA for 6 hours at 37° C. Total RNA was isolated from LN cells stimulated with GA or controls. cDNA was synthesized from the RNA and the mRNA levels of seven mouse cytokines, IL-2, IL-4, IL-5, IL-10, IL-13, interferon (IFN)-γ and tumor necrosis factor (TNF)-α, were quantitatively measured by a real-time PCR method.
(§3) Female SJL/J mice at 8-9 weeks of age were immunized by injection into four footpads using a 1 mL syringe with a 27-G, ½-inch needle. Each mouse received a total injection volume of 0.1 mL of GMA emulsified in CFA (about 10 μL into each of the front footpads and 40 μL into each of the hind footpads). Animals were immunized on Day 0. After injection, animals were placed back in their cages and housed ≤6 animals per cage.
(§4) Immunized animals were sacrificed by cervical dislocation on Day 10 following immunization. […] After centrifugation at about 200×g for 10 minutes at 4° C., the cell pellet was re-suspended in 40 mL of DCCM-1 medium for cell counting. A Trypan blue exclusion method was used to determine the cell density of viable cells in the suspension. After cell counting, the LN cells were suspended in enriched DCCM-1 medium at density of 7.5×10^6 cells/mL. LN cells (0.12 mL) were plated into each well of 96-well tissue culture plates.
(§5) Dilutions of GA (Mylan GMA) were prepared using enriched DCCM-1 medium as the diluent. GA dilutions (0.12 mL) were added in the assigned wells of 96-well tissue culture plates. The same volume of LN cells (0.12 mL) isolated from immunized animals was added to the assigned wells. A positive control and a negative control were always performed in the same assay by treating LN cells with 2.5 μg/mL ConA and 10 μg/mL MBP, respectively. The LN cells with mock stimulation protocols (enriched DCCM-1 medium) were used to monitor the background mRNA level of a cytokine. The plates were incubated at 37° C. in a humidified 5% CO2 incubator for 6 hr.
(§6) At the end of incubation time, culture medium from stimulated cells was removed by aspiration and the cells were lysed using Qiagen or Promega lysis buffer. The lysate was transferred to an RNeasy Mini column (Qiagen) or wells of the SV 96 Binding Plate (Promega) for RNA isolation and cDNA synthesis. All tested samples were run in triplicate.
(§7) The SV 96 Total RNA Isolation System (Promega; Cat. No. Z3505) was used for total RNA isolation. Assay procedures were carried out according to each manufacturer's protocol. RNA samples were stored at −70° C. until use. […] The assay procedure was carried out according to the manufacturer's protocol.
(§8) The plate was centrifuged at 2000 rpm for 2 minutes at 4° C. to spin down the contents and eliminate air bubbles. Samples were prepared and run in a 96-well plate using a Life Technologies Real-Time PCR system (previously Applied Biosystems; Model No. 7500) according to the manufacturer's recommendation. The mix for the reference gene was prepared in the same way using the reference gene primer.
(§9) A relative quantitation method was used to analyze changes in mIL-2, mIL-4, mIL-5, mIL-10, mIL-13, mIFN-γ and TNF-α expression in GA treated samples relative to the untreated control (Enriched DCCM-1 treated) samples using the following program:
(§10) Levels of mouse cytokine amplicons were normalized to an internal probe level (GAPDH) from the same samples. The following equations were used to calculate the relative increase in response to GA stimulation compared to the control sample (Enriched DCCM1 sample): […]

[4] = system: mouse TNF-α mRNA in primary LN cells; experiment: Validation: mouse TNF-α mRNA by real-time PCR in LN cells of GA-immunized SJL/J mice (Example IV); assay type: cell-based; settings: for TNF-α mRNA Fold Change: normalized to GAPDH
Experimental: as §2, §3, §4, §5, §6, §7, §8, §9, §10

[5] = BALB/cByJ, immunized Mannitol Intraplantar
[6] = C57BL10J, immunized GA Intraplantar
[7] = C57BL10J, immunized Mannitol Intraplantar
[8] = CD-1, immunized GA Intraplantar
[9] = CD-1, immunized Mannitol Intraplantar
[10] = BALB/cByJ, immunized GA Intraplantar
[11] = SJL/J, MBP 10 μg/mL, all PCR runs

Row | Molecule | IL-1b secretion response ratio (treated cell medium to control DCCM1 medium) [1, 5] | IL-1b secretion response ratio (treated cell medium to control DCCM1 medium) [1, 6] | IL-1b secretion response ratio (treated cell medium to control DCCM1 medium) [1, 7] | IL-1b secretion response ratio (treated cell medium to control DCCM1 medium) [1, 8] | IL-1b secretion response ratio (treated cell medium to control DCCM1 medium) [1, 9] | KC secretion response ratio (treated cell medium to control DCCM1 medium) [2, 10] | KC secretion response ratio (treated cell medium to control DCCM1 medium) [2, 5] | KC secretion response ratio (treated cell medium to control DCCM1 medium) [2, 7] | KC secretion response ratio (treated cell medium to control DCCM1 medium) [2, 8] | KC secretion response ratio (treated cell medium to control DCCM1 medium) [2, 9] | other results
1 | Concanavalin A [ConA, reference compound] | 7.83 | 2.21 | 1.40 | 8.50 | 3.37 | 1.52 | 1.00 | 1.34 | 1.56 | 2.55 | IL-10 mRNA Fold Change ([3]; Experiment 1, 2.5 μg/mL): 1.2 fold; IL-10 mRNA Fold Change ([3]; Experiment 2, 2.5 μg/mL): 0.5 fold; IL-10 mRNA Fold Change ([3]; Experiment 3, 2.5 μg/mL): 1.6 fold; TNF-α mRNA Fold Change ([4]; Experiment 1, 2.5 μg/mL): 1.9 fold; TNF-α mRNA Fold Change ([4]; Experiment 2, 2.5 μg/mL): 0.8 fold; TNF-α mRNA Fold Change ([4]; Experiment 3, 2.5 μg/mL): 1.6 fold
2 | MBP: myelin basic protein, a negative control (protein, UniProt P02686 1-304, looked up) Myelin basic protein: MGNHAGKRELNAEKASTNSETNRGESEKKRNLGELSRTTSEDNEVFGEADANQNNGTSSQDTAVTDSKRTADPKNAWQDAHPADPGSRPHLIRLFSRDAPGREDNTFKDRPSESDELQTIQEDSAATSESLDVMASQKRPSQRHGSKYLATASTMDHARHGFLPRHRDTGILDSIGRFFGGDRGAPKRGSGKDSHHPARTAHYGSLPQKSHGRTQDENPVVHFFKNIVTPRTPPPSQGKGRGLSLSRFSWGAEGQRPGFGYGGRASDYKSAHKGFKGVDAQGTLSKIFKLGGRDSRSGSPMARR | 0.87 | 0.99 | 0.92 | 1.37 | 1.20 | 1.04 | 0.96 | 1.12 | 1.05 | 1.09 | IL-10 mRNA Fold Change ([3]; Experiment 1, 10 μg/mL): 1.1 fold; IL-10 mRNA Fold Change ([3]; Experiment 2, 10 μg/mL): 0.7 fold; IL-10 mRNA Fold Change ([3]; Experiment 3, 10 μg/mL): 1.0 fold; IL-10 mRNA expression level in response to MBP treatment [3, 11]: ≤ 2 fold; TNF-α mRNA Fold Change ([4]; Experiment 1, 10 μg/mL): 1.0 fold; TNF-α mRNA Fold Change ([4]; Experiment 2, 10 μg/mL): 1.1 fold; TNF-α mRNA Fold Change ([4]; Experiment 3, 10 μg/mL): 1.1 fold; TNF-α mRNA expression level in response to MBP treatment [4, 11]: ≤ 2 fold
